Assay results as given in patent US20250206828A1, “ANTI-ADENOSINE RECEPTOR (A2aR) ANTIBODIES AND THE USE THEREOF” (Adept Therapeutics Inc., priority 2022, published 2025).
Like-named read-outs stand apart in the source and are kept apart here.

Legend:
[1] = target: T1, human adenosine A2A receptor (A2aR) (human, UniProt P29274 1-412); test: cell-based or functional assay
[2] = target: T1, human adenosine A2A receptor (A2aR); test: flow cytometry, HEK293-hA2aR cells, supernatant 1 ug/ml
[3] = target: T1, human adenosine A2A receptor (A2aR); test: flow cytometry titration, HEK293-hA2aR cells, purified antibody
[4] = target: T1, human adenosine A2A receptor (A2aR); test: cell-based or functional assay; remark: listed apart in the source
[5] = target: T1, human adenosine A2A receptor (A2aR); test: flow cytometry, HEK293-hA2aR cells, supernatant 1 ug/ml; remark: listed apart in the source

T1 sequence (P29274 whole entry): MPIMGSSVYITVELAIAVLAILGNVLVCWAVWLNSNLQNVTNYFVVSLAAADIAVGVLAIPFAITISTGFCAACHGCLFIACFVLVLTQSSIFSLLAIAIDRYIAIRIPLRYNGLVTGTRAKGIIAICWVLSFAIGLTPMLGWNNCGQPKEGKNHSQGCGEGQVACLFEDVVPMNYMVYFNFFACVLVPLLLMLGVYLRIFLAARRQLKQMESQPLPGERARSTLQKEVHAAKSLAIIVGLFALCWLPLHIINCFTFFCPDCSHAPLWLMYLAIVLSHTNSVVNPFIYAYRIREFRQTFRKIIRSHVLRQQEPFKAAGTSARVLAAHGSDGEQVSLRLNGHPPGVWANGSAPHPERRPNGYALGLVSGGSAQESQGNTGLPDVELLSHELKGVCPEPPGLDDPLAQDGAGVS

| IC50 of blocking activity, cAMP-Glo, 300 nM NECA, HEK293-hA2aR cells, supernatant [1] [nM] | MFI [2] [MFI] | EC50 [3] [nM] | IC50 of blocking activity, cAMP-Glo, 300 nM NECA, HEK293-hA2aR cells, supernatant [4] [nM] | MFI [5] [MFI] | Binder |
| --- | --- | --- | --- | --- | --- |
| 1.5 | 1850 | 0.83 |  |  | Hu3F8-H3/Hu3F8-L5 (antibody, human IgG1, V domains shown, Human IgG1 FES (L234F, L235E, P331S) and human Ig kappa constant domains; also called Hu3F8 VH3/VL5) VH: EVQLVQSGAEVKKPGASVKVSCKASGFTFTRYWMNWVRQAPGQGLEWIGRIDPSDSETHYNHKFWGRATLTVDTSTSTVYMELSSLRSEDTAVYYCLRSLYGKGDYWGQGTTVTVSS VL: DVVMTQSPLSLPVTPGEPASISCRSSQSIVHSNGNTYLEWYLQKPGQSPQLLIYKVSNRFSGVPDRFSGSGSGTDFTLKISRVEAEDVGVYYCYQGSHVPLTFGGGTKVEIK |
| 2.2 | 1840 |  |  |  | Hu3F8-H5/Hu3F8-L4 (antibody, human IgG1, V domains shown, Human IgG1 FES (L234F, L235E, P331S) and human Ig kappa constant domains) VH: EVQLVQSGAEVKKPGASVKVSCKASGFTFTRYWMNWVRQAPGQGLEWIGRIDPSDSETHYNAKFWGRATLTVDKSTSTVYMELSSLRSEDTAVYYCLRSLYGKGDYWGQGTTVTVSS VL: DIVMTQSPLSLPVTPGEPASISCRSSQSIVHSNGNTYLEWYLQKPGQSPQLLIYKVSNRFSGVPDRFSGSGSGTDFTLKISRVEAEDVGVYYCYQGSHVPLTFGGGTKVEIK |
| 1.1 | 1860 | 0.69 |  |  | Hu3F8-H3/Hu3F8-L3 (antibody, human IgG1, V domains shown, Human IgG1 FES (L234F, L235E, P331S) and human Ig kappa constant domains; also called Hu3F8 VH3/VL3) VH: EVQLVQSGAEVKKPGASVKVSCKASGFTFTRYWMNWVRQAPGQGLEWIGRIDPSDSETHYNHKFWGRATLTVDTSTSTVYMELSSLRSEDTAVYYCLRSLYGKGDYWGQGTTVTVSS VL: DVVMTQSPLSLPVTLGQPASISCRSSQSIVHSNGNTYLEWYQQRPGQSPRLLIYKVSNRFSGVPDRFSGSGSGTDFTLKISRVEAEDVGVYYCYQGSHVPLTFGGGTKVEIK |
| 1 | 1880 | 0.79 |  |  | Hu3F8-H4/Hu3F8-L4 (antibody, human IgG1, V domains shown, Human IgG1 FES (L234F, L235E, P331S) and human Ig kappa constant domains; also called Hu3F8 VH4/VL4) VH: EVQLVQSGAEVKKPGASVKVSCKASGFTFTRYWMNWVRQAPGQGLEWIGRIDPSDSETHYNHKFWGRATLTVDKSTSTVYMELSSLRSEDTAVYYCLRSLYGKGDYWGQGTTVTVSS VL: DIVMTQSPLSLPVTPGEPASISCRSSQSIVHSNGNTYLEWYLQKPGQSPQLLIYKVSNRFSGVPDRFSGSGSGTDFTLKISRVEAEDVGVYYCYQGSHVPLTFGGGTKVEIK |
| 2.3 | 1880 |  |  |  | Hu3F8-H6/Hu3F8-L4 (antibody, human IgG1, V domains shown, Human IgG1 FES (L234F, L235E, P331S) and human Ig kappa constant domains) VH: EVQLVQSGAEVKKPGESLRISCKASGFTFTRYWMNWVRQMPGKGLEWIGRIDPSDSETHYNHKFWGHATLSVDKSSSTVYLQWSSLKASDTAMYYCLRSLYGKGDYWGQGTTVTVSS VL: DIVMTQSPLSLPVTPGEPASISCRSSQSIVHSNGNTYLEWYLQKPGQSPQLLIYKVSNRFSGVPDRFSGSGSGTDFTLKISRVEAEDVGVYYCYQGSHVPLTFGGGTKVEIK |
| 1.5 | 1840 |  |  |  | Hu3F8-H5/Hu3F8-L3 (antibody, human IgG1, V domains shown, Human IgG1 FES (L234F, L235E, P331S) and human Ig kappa constant domains) VH: EVQLVQSGAEVKKPGASVKVSCKASGFTFTRYWMNWVRQAPGQGLEWIGRIDPSDSETHYNAKFWGRATLTVDKSTSTVYMELSSLRSEDTAVYYCLRSLYGKGDYWGQGTTVTVSS VL: DVVMTQSPLSLPVTLGQPASISCRSSQSIVHSNGNTYLEWYQQRPGQSPRLLIYKVSNRFSGVPDRFSGSGSGTDFTLKISRVEAEDVGVYYCYQGSHVPLTFGGGTKVEIK |
| 1.5 | 1900 | 0.65 |  |  | Hu3F8-H6/Hu3F8-L5 (antibody, human IgG1, V domains shown, Human IgG1 FES (L234F, L235E, P331S) and human Ig kappa constant domains; also called Hu3F8 VH6/VL5) VH: EVQLVQSGAEVKKPGESLRISCKASGFTFTRYWMNWVRQMPGKGLEWIGRIDPSDSETHYNHKFWGHATLSVDKSSSTVYLQWSSLKASDTAMYYCLRSLYGKGDYWGQGTTVTVSS VL: DVVMTQSPLSLPVTPGEPASISCRSSQSIVHSNGNTYLEWYLQKPGQSPQLLIYKVSNRFSGVPDRFSGSGSGTDFTLKISRVEAEDVGVYYCYQGSHVPLTFGGGTKVEIK |
|  |  | 0.59 | 1.1 | 1890 | Hu3F6-H5/Hu3F6-L8 (antibody, human IgG1, V domains shown, Human IgG1 FES (L234F, L235E, P331S) and human Ig kappa constant domains; also called Hu3F6 VH5/VL8) VH: EVQLVQSGAEVKKPGASVKVSCKTSGFAFTSYWMNWVRQAPGQGLEWIGRIDPSDSEAHYAHKFWGRATLTVDKSSSTVYMELSSLRSEDTAVYYCLRSLYGKGDYWGHGTTVTVSS VL: DVVMTQSPLSLPVTPGEPASISCRSSQSLVHRNGNTYLEWYLQKPGQSPQLLIYKVSNRFSGVPDRFSGSGSGTDFTLKISRVEAEDVGVYYCYQGSHVPLTFGGGTKVEIK |
| 1.6 | 1900 |  |  |  | Hu3F8-H5/Hu3F8-L5 (antibody, human IgG1, V domains shown, Human IgG1 FES (L234F, L235E, P331S) and human Ig kappa constant domains) VH: EVQLVQSGAEVKKPGASVKVSCKASGFTFTRYWMNWVRQAPGQGLEWIGRIDPSDSETHYNAKFWGRATLTVDKSTSTVYMELSSLRSEDTAVYYCLRSLYGKGDYWGQGTTVTVSS VL: DVVMTQSPLSLPVTPGEPASISCRSSQSIVHSNGNTYLEWYLQKPGQSPQLLIYKVSNRFSGVPDRFSGSGSGTDFTLKISRVEAEDVGVYYCYQGSHVPLTFGGGTKVEIK |
| 1.2 | 1880 | 0.59 |  |  | Hu3F8-H6/Hu3F8-L3 (antibody, human IgG1, V domains shown, Human IgG1 FES (L234F, L235E, P331S) and human Ig kappa constant domains; also called Hu3F8 VH6/VL3) VH: EVQLVQSGAEVKKPGESLRISCKASGFTFTRYWMNWVRQMPGKGLEWIGRIDPSDSETHYNHKFWGHATLSVDKSSSTVYLQWSSLKASDTAMYYCLRSLYGKGDYWGQGTTVTVSS VL: DVVMTQSPLSLPVTLGQPASISCRSSQSIVHSNGNTYLEWYQQRPGQSPRLLIYKVSNRFSGVPDRFSGSGSGTDFTLKISRVEAEDVGVYYCYQGSHVPLTFGGGTKVEIK |
| 1.5 | 1810 |  |  |  | Hu3F8-H1/Hu3F8-L3 (antibody, human IgG1, V domains shown, Human IgG1 FES (L234F, L235E, P331S) and human Ig kappa constant domains) VH: QVQLVQSGAEVKKPGASVKVSCKASGFTFTRYWMNWVRQAPGQGLEWMGRIDPSDSETHYNHKFWGRVTMTRDTSTSTVYMELSSLRSEDTAVYYCLRSLYGKGDYWGQGTTVTVSS VL: DVVMTQSPLSLPVTLGQPASISCRSSQSIVHSNGNTYLEWYQQRPGQSPRLLIYKVSNRFSGVPDRFSGSGSGTDFTLKISRVEAEDVGVYYCYQGSHVPLTFGGGTKVEIK |
| 1.1 | 1800 | 0.66 |  |  | Hu3F8-H2/Hu3F8-L3 (antibody, human IgG1, V domains shown, Human IgG1 FES (L234F, L235E, P331S) and human Ig kappa constant domains; also called Hu3F8 VH2/VL3) VH: EVQLVQSGAEVKKPGASVKVSCKASGFTFTRYWMNWVRQAPGQGLEWMGRIDPSDSETHYNHKFWGRVTMTVDTSTSTVYMELSSLRSEDTAVYYCLRSLYGKGDYWGQGTTVTVSS VL: DVVMTQSPLSLPVTLGQPASISCRSSQSIVHSNGNTYLEWYQQRPGQSPRLLIYKVSNRFSGVPDRFSGSGSGTDFTLKISRVEAEDVGVYYCYQGSHVPLTFGGGTKVEIK |
| 1.5 | 1890 | 0.75 |  |  | Hu3F8-H4/Hu3F8-L5 (antibody, human IgG1, V domains shown, Human IgG1 FES (L234F, L235E, P331S) and human Ig kappa constant domains; also called Hu3F8 VH4/VL5) VH: EVQLVQSGAEVKKPGASVKVSCKASGFTFTRYWMNWVRQAPGQGLEWIGRIDPSDSETHYNHKFWGRATLTVDKSTSTVYMELSSLRSEDTAVYYCLRSLYGKGDYWGQGTTVTVSS VL: DVVMTQSPLSLPVTPGEPASISCRSSQSIVHSNGNTYLEWYLQKPGQSPQLLIYKVSNRFSGVPDRFSGSGSGTDFTLKISRVEAEDVGVYYCYQGSHVPLTFGGGTKVEIK |
| 0.7 | 1910 | 0.6 |  |  | Hu3F8-H4/Hu3F8-L3 (antibody, human IgG1, V domains shown, Human IgG1 FES (L234F, L235E, P331S) and human Ig kappa constant domains; also called Hu3F8 VH4/VL3) VH: EVQLVQSGAEVKKPGASVKVSCKASGFTFTRYWMNWVRQAPGQGLEWIGRIDPSDSETHYNHKFWGRATLTVDKSTSTVYMELSSLRSEDTAVYYCLRSLYGKGDYWGQGTTVTVSS VL: DVVMTQSPLSLPVTLGQPASISCRSSQSIVHSNGNTYLEWYQQRPGQSPRLLIYKVSNRFSGVPDRFSGSGSGTDFTLKISRVEAEDVGVYYCYQGSHVPLTFGGGTKVEIK |
| 1.4 | 1790 | 0.85 |  |  | Hu3F8-H1/Hu3F8-L5 (antibody, human IgG1, V domains shown, Human IgG1 FES (L234F, L235E, P331S) and human Ig kappa constant domains; also called Hu3F8 VH1/VL5) VH: QVQLVQSGAEVKKPGASVKVSCKASGFTFTRYWMNWVRQAPGQGLEWMGRIDPSDSETHYNHKFWGRVTMTRDTSTSTVYMELSSLRSEDTAVYYCLRSLYGKGDYWGQGTTVTVSS VL: DVVMTQSPLSLPVTPGEPASISCRSSQSIVHSNGNTYLEWYLQKPGQSPQLLIYKVSNRFSGVPDRFSGSGSGTDFTLKISRVEAEDVGVYYCYQGSHVPLTFGGGTKVEIK |
| 1.7 | 1840 |  |  |  | Hu3F8-H3/Hu3F8-L4 (antibody, human IgG1, V domains shown, Human IgG1 FES (L234F, L235E, P331S) and human Ig kappa constant domains) VH: EVQLVQSGAEVKKPGASVKVSCKASGFTFTRYWMNWVRQAPGQGLEWIGRIDPSDSETHYNHKFWGRATLTVDTSTSTVYMELSSLRSEDTAVYYCLRSLYGKGDYWGQGTTVTVSS VL: DIVMTQSPLSLPVTPGEPASISCRSSQSIVHSNGNTYLEWYLQKPGQSPQLLIYKVSNRFSGVPDRFSGSGSGTDFTLKISRVEAEDVGVYYCYQGSHVPLTFGGGTKVEIK |
| 1.8 | 1770 | 0.9 |  |  | Hu3F8-H2/Hu3F8-L5 (antibody, human IgG1, V domains shown, Human IgG1 FES (L234F, L235E, P331S) and human Ig kappa constant domains; also called Hu3F8 VH2/VL5) VH: EVQLVQSGAEVKKPGASVKVSCKASGFTFTRYWMNWVRQAPGQGLEWMGRIDPSDSETHYNHKFWGRVTMTVDTSTSTVYMELSSLRSEDTAVYYCLRSLYGKGDYWGQGTTVTVSS VL: DVVMTQSPLSLPVTPGEPASISCRSSQSIVHSNGNTYLEWYLQKPGQSPQLLIYKVSNRFSGVPDRFSGSGSGTDFTLKISRVEAEDVGVYYCYQGSHVPLTFGGGTKVEIK |
